Data reported in article PMC10959496 (European journal of medicinal chemistry, 2023).

Columns and labels:
[1] = mouse, ip
EphA4 [2] = biological target: T1, EphA4 (Homo sapiens, UniProt P54764); experiment: ELISA measuring EphA4 activation; format: cell-based; conditions: HEK-EphA4 cells, ratio of IC50 values
EphA4 [3] = biological target: T1, EphA4; conditions: cited from earlier work

T1 sequence (P54764 20-986, species assumed): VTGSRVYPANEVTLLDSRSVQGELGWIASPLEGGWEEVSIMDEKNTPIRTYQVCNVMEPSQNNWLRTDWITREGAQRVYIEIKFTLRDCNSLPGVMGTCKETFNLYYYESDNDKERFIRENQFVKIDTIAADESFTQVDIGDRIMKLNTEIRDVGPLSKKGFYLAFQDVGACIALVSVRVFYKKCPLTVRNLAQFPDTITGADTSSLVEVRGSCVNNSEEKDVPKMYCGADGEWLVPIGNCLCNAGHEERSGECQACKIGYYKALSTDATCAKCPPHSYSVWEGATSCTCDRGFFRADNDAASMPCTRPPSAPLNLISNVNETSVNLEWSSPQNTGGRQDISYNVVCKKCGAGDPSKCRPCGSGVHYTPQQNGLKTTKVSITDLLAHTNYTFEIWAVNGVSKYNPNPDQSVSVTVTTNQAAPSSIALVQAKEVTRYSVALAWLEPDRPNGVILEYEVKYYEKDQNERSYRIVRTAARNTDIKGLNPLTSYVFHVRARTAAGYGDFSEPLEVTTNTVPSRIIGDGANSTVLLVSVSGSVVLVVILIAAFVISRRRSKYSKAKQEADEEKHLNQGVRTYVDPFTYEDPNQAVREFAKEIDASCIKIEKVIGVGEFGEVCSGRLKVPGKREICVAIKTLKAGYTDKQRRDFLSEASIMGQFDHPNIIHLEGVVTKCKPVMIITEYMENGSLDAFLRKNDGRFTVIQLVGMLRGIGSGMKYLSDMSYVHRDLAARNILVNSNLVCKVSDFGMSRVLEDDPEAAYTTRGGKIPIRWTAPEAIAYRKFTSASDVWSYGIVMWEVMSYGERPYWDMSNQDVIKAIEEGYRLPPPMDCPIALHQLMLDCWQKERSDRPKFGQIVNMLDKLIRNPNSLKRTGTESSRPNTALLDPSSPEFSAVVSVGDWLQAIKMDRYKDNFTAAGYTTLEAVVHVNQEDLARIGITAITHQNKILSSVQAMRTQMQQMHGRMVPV

Row | Substance | Blood concentration at 20 hours after injection ([1]; in vivo, 0.8 mg per mouse, 20 h) | Blood concentration at 48 hours after injection ([1]; in vivo, 0.8 mg per mouse, 48 h) | In vivo half-life after intraperitoneal injection [1] | Potency in cells lower than that of APY-d3 (EphA4 [2]) | More potent than APY (EphA4 [3])
1 | APY-d3-PEG4: APY-d3 conjugated to 30 kDa metoxy-PEG-azide through 3 amino-hexanoic acid groups and propargyl-glycine by click chemistry | ~ 3 μM | 0.4 µM | > 10 h | ~ 4 fold | 
2 | APYCVYRβASWSC-NH2 (disulfide) [APY-d2] |  |  |  |  | 50 fold
